Experiment [1] addresses Thermodesulfatator indicus HARP, recombinant (Thermodesulfatator indicus). Nature of the experiment: SEC.
For experiment [2] the target is unchanged. Nature of the experiment: mass photometry.

Values joined by “and” are separate entries in the source; they are usually repeats but may differ in a detail not shown here. Equal entries are not always repeated.

One may read the stoichiometry N as the number of molecules, sites or subunits per partner or assembly. Consider “Thermodesulfatator indicus HARP, recombinant (enzyme)”, for which the stoichiometry N in experiment [1] is less than 12; in experiment [2], 2 and 4.

Source of the values: publication PMC9945441.
